Assay results reported in patent publication US20140141003A1 (Bayer, published 2014).
Where two headings read alike, the source gives them in different places.

Key:
[1] = target: T1, extracellular domain of human PRLR (soluble, monomeric) (human, UniProt P16471 25-234); experiment: SPR: ECD-PRLR captured by immobilized Mat3 or HE06642, human PRL passed over
T1 construct: also called Human ECD PRLR; ECD-PRLR
T1 sequence: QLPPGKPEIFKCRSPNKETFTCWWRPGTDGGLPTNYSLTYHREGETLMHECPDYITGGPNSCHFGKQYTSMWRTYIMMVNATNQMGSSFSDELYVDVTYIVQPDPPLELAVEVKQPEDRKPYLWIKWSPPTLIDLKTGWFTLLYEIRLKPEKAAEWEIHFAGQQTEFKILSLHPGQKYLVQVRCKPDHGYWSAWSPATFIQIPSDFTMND

[2] = target: human PRLR expressed on cells (human) (UniProt P16471); experiment: cell-based or functional assay
[3] = target: murine PRLR expressed on cells (mouse) (UniProt Q08501); experiment: cell-based or functional assay
[4] = target: T2, rhesus monkey PRLR expressed on cells (rhesus monkey, UniProt F7HIU9 25-619); experiment: cell-based or functional assay
T2 sequence: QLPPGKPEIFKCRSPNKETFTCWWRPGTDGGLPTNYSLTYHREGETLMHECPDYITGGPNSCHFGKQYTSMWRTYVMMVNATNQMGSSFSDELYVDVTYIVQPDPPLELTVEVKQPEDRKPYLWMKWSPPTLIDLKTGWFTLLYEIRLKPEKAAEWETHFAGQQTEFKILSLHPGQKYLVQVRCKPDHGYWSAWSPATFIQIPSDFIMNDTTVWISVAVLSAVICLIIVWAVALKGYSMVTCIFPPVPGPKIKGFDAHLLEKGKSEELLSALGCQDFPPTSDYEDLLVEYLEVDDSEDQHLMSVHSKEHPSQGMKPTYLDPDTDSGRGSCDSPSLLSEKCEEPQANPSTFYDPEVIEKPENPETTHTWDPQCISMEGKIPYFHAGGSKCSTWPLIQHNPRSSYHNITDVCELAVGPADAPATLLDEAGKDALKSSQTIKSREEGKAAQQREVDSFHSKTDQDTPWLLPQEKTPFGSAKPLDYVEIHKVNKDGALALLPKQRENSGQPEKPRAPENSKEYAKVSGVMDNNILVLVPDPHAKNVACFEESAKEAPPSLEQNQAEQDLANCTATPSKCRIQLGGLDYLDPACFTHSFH

[5] = target: human PRLR expressed on cells (human) (UniProt P16471); experiment: flow cytometry on BaF3-human PRLR cells, IgG1 format
[6] = target: murine PRLR expressed on cells (mouse) (UniProt Q08501); experiment: flow cytometry on BaF3-mouse PRLR cells, IgG1 format
[7] = target: human PRLR expressed on cells (human) (UniProt P16471); experiment: flow cytometry on HEK293-human PRLR cells, IgG1 format
[8] = target: murine PRLR expressed on cells (mouse) (UniProt Q08501); experiment: flow cytometry on HEK293-murine PRLR cells, IgG1 format
[9] = target: T2, rhesus monkey PRLR expressed on cells; experiment: flow cytometry on BaF3-rhesus PRLR cells, IgG1 format
[10] = target: human PRLR expressed on cells (human) (UniProt P16471); experiment: flow cytometry on human T47D breast cancer cells (natural PRLR), IgG1 format
[11] = target: T1, extracellular domain of human PRLR …; experiment: SPR (Biacore T100), antibody captured via anti-human IgG Fc, monovalent ECD as analyte, Example 10
Experimental: (§1) Antibodies were immobilized onto a CM5 sensor chip through an indirect capturing reagent, anti-human IgG Fc. […] Approximately 5000 RU monoclonal mouse anti-human IgG (Fc) antibody were immobilized per cell. […] Sensograms were generated after in-line reference cell correction followed by buffer sample subtraction. The dissociation equilibrium constant (KD) was calculated based on the ratio of association (kon) and dissociation rated (koff=kd) constants, obtained by fitting sensograms with a first order 1:1 binding model using BiaEvaluation Software.

[12] = target: T3, extracellular domain of rhesus and cynomolgus monkey PRLR (Fc-His removed by Factor Xa digestion) (rhesus and cynomolgus monkey, UniProt P16471 25-234 (human entry)); experiment: as above
T3 construct: the fusion part was removed by Factor Xa before SPR; also called Rhesus/Cynomolgus PRLR; Rhesus and cynomolgus monkey ECD PRLR
T3 chain: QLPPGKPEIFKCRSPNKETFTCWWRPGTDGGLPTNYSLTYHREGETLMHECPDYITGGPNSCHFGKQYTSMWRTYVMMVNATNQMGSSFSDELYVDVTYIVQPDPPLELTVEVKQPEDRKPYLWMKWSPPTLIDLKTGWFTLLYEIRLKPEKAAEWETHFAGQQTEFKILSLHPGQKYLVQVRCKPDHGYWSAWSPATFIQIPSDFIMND
Experimental: as §1

[13] = target: T4, extracellular domain of murine PRLR (soluble, monomeric) (mouse, UniProt Q08501 20-229); experiment: as above
T4 construct: Expressed in HEK293 cells; also called Murine ECD PRLR; Mouse PRLR
T4 sequence: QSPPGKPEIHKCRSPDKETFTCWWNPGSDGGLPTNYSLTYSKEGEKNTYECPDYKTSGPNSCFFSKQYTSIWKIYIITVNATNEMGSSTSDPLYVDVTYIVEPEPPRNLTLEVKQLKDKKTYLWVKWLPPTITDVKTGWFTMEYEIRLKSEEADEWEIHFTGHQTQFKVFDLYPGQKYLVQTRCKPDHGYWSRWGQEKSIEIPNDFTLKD
Experimental: as §1

[14] = target: T1, extracellular domain of human PRLR …; experiment: SPR (Biacore T100), antibody captured via anti-human IgG Fc, monovalent ECD as analyte, Example 13
Experimental: (§2) Antibodies were immobilized onto a CM5 sensor chip through an indirect capturing reagent, anti-human IgG Fc. […] Approximately 5000 RU monoclonal mouse anti-human IgG (Fc) antibody were immobilized per cell. Each test antibody was injected at a concentration of 5 μg/ml at 10 μl/min for 10 sec to reach a capturing level of approximately 200 to 600 RU. […] Sensograms were generated after in-line reference cell correction followed by buffer sample subtraction. The dissociation equilibrium constant (KD) was calculated based on the ratio of association (kon) and dissociation rated (koff=kd) constants, obtained by fitting sensograms with a first order 1:1 binding model using BiaEvaluation Software (see Table 7).

[15] = target: T3, extracellular domain of rhesus and …; experiment: as above
Experimental: as §2

[16] = target: T4, extracellular domain of murine PRLR …; experiment: as above
Experimental: as §2

[17] = target: human PRLR expressed on cells (human) (UniProt P16471); experiment: flow cytometry on HEK293 cells expressing human PRLR, Example 9
[18] = target: T2, rhesus monkey PRLR expressed on cells; experiment: flow cytometry on Ba/F cells expressing rhesus monkey PRLR, Example 9
Experimental: The cells were harvested, centrifuged and resuspended at approximately 2×10⁶ cells/ml in 1×PBS containing 3% FBS and 0.05% sodium azide (FACS buffer). […] For secondary antibody and autofluorescence controls, 50 μl FACS buffer was added to appropriate wells. 50 μl of cell suspension was added to each sample well. Samples were incubated at 4° C. for one hour, washed twice with cold FRCS buffer and resuspended in FACS buffer containing PE-conjugated goat anti-human IgG at a 1:100 dilution. Following a 30 min incubation at 4° C., cells were washed twice with cold FACS buffer, resuspended in FACS buffer containing 1 mg/ml propidium iodide (Invitrogen, San Diego, Calif.) and analyzed by flow cytometry.

[19] = target: human PRLR expressed on cells (human) (UniProt P16471); experiment: cell-based or functional assay; remark: listed apart in the source
[20] = target: murine PRLR expressed on cells (mouse) (UniProt Q08501); experiment: cell-based or functional assay; remark: listed apart in the source

IC50, inhibition of prolactin-induced proliferation of BaF3 cells stably transfected with the rhesus prolactin receptor [4] | EC50 [5] | EC50 [7] | EC50 [9] | EC50 [10] | Kd [14] | koff [14] | Kd [15] | koff [15] | Kd [16] | koff [16] | further results | Binder
 |  |  |  |  |  |  |  |  |  |  | binding result [1]: binds | human prolactin (ligand, UniProt P01236 29-227, looked up, also called PRL; Human PRL) LPICPGGAARCQVTLRDLFDRAVVLSHYIHNLSSEMFSEFDKRYTHGRGFITKAINSCHTSSLATPEDKEQAQQMNQKDFLSLIVSILRSWNEPLYHLVTEVRGMQEAPEAILSKAVEIEEQTKRLLEGMELIVSQVHPETKENEIYPVWSGLPSLQMADEESRLSAYYNLLHCLRRDSHKIDNYLKLLKCRIIHNNNC
4.6 nM | 0.1 nM | 0.8 nM | 1.2 nM | 0.4 nM |  |  |  |  |  |  | % inhibition of prolactin-induced proliferation at 1 µg/ml (=6.7 nM) [2]: 100%; IC50, inhibition of LHRE luciferase reporter gene activity in HEK293 cells stably transfected with human PRLR [2]: 0.5 nM; IC50, inhibition of prolactin-induced proliferation of BaF3 cells stably transfected with human prolactin receptor [2]: 0.7 nM; IC50, inhibition of LHRE luciferase reporter gene activity in HEK293 cells stably transfected with murine PRLR [3]: 1.3 nM; IC50, inhibition of prolactin-induced proliferation of BaF3 cells stably transfected with the murine prolactin receptor [3]: 3 nM; EC50 [6]: 0.2 nM; EC50 [8]: 0.1 nM | antibody Mat3 in IgG1 format (antibody, V domains shown, also called Mat3 IgG1) VH: EVQLLESGGGLVQPGGSLRLSCAASGFTFSSYWMHWVRQAPGKGLEWVSDIARLSSYTNYADSVKGRFTISRDNSKNTLYLQMNSLRAEDTAVYYCARGLDARRMDYWGQGTLVTVSS VL: QSVLTQPPSASGTPGQRVTISCTGSSSNIGAGYVVHWYQQLPGTAPKLLIYRNNQRPSGVPDRFSGSKSGTSASLAISGLRSEDEADYYCAAWDDSLNGWLFGGGTKLTVLG
 |  |  |  |  | 1.3 nM | 0.000414 s⁻¹ | 9.6 nM | 0.00102 s⁻¹ | 0.4 nM | 0.000164 s⁻¹ | Kd [11]: 0.9 nM; koff [11]: 0.00044 s⁻¹; Kd [12]: 7.1 nM; koff [12]: 0.0011 s⁻¹; Kd [13]: 0.4 nM; koff [13]: 0.00021 s⁻¹ | antibody Mat3 as human IgG molecule (isotype not stated) (antibody, V domains shown, Lambda light chain; also called neutralizing prolactin receptor antibody Mat3) VH: EVQLLESGGGLVQPGGSLRLSCAASGFTFSSYWMHWVRQAPGKGLEWVSDIARLSSYTNYADSVKGRFTISRDNSKNTLYLQMNSLRAEDTAVYYCARGLDARRMDYWGQGTLVTVSS VL: QSVLTQPPSASGTPGQRVTISCTGSSSNIGAGYVVHWYQQLPGTAPKLLIYRNNQRPSGVPDRFSGSKSGTSASLAISGLRSEDEADYYCAAWDDSLNGWLFGGGTKLTVLG
 |  |  |  |  |  |  |  |  |  |  | EC50 [17]: 0.53 nM; EC50 [18]: 2.94 nM | antibody Mat3 as human IgG2 molecule (antibody, V domains shown, also called IgG2 Mat3) VH: EVQLLESGGGLVQPGGSLRLSCAASGFTFSSYWMHWVRQAPGKGLEWVSDIARLSSYTNYADSVKGRFTISRDNSKNTLYLQMNSLRAEDTAVYYCARGLDARRMDYWGQGTLVTVSS VL: QSVLTQPPSASGTPGQRVTISCTGSSSNIGAGYVVHWYQQLPGTAPKLLIYRNNQRPSGVPDRFSGSKSGTSASLAISGLRSEDEADYYCAAWDDSLNGWLFGGGTKLTVLG
206 nM | 0.2 nM | 1.6 nM | 3.2 nM | 0.8 nM |  |  |  |  |  |  | IC50, inhibition of LHRE luciferase reporter gene activity in HEK293 cells stably transfected with human PRLR [19]: 4.6 nM; IC50, inhibition of prolactin-induced proliferation of BaF3 cells stably transfected with human prolactin receptor [19]: 4.2 nM; IC50, inhibition of LHRE luciferase reporter gene activity in HEK293 cells stably transfected with murine PRLR [20]: > 1330 nM | antibody HE06642 as IgG1 molecule (antibody, V domains shown) VH: EVQLVESGGGLVQPGGSLRLSCAVSGFTFSSYGMSWVRQAPGKGLEWVATVSSGGTYTYYPDSVKGRFTISRDNSKNTLYLQMNSLRAEDTAVYYCARHRGNYYATYYYAMDYWGQGTLVTVSS VL: DIVLTQSPDSLAVSLGERATINCKASKSVSTSGYTYMHWYQQKPGQPPKLLIYLASNRESGVPDRFSGSGSGTDFTLTISPVQAEDVATYYCQHSGELPPSFGQGTKLEIKR
 |  |  |  |  | 0.8 nM | 0.000533 s⁻¹ | 17 nM | 0.00579 s⁻¹ | 15 nM | 0.0091 s⁻¹ |  | antibody HE06642 (isotype not stated) (antibody, V domains shown, Kappa light chain; also called he06.642-2 of WO 2008/022295) VH: EVQLVESGGGLVQPGGSLRLSCAVSGFTFSSYGMSWVRQAPGKGLEWVATVSSGGTYTYYPDSVKGRFTISRDNSKNTLYLQMNSLRAEDTAVYYCARHRGNYYATYYYAMDYWGQGTLVTVSS VL: DIVLTQSPDSLAVSLGERATINCKASKSVSTSGYTYMHWYQQKPGQPPKLLIYLASNRESGVPDRFSGSGSGTDFTLTISPVQAEDVATYYCQHSGELPPSFGQGTKLEIKR
